These results are taken from publication PMC10724200, “A peptide derived from interleukin-10 exhibits potential anticancer activity and can facilitate cell targeting of gold nanoparticles loaded with anticancer therapeutics” (Communications Chemistry, 2023).

The Kd is the constant that tells how readily two partners part at equilibrium. What is called koff is the first-order rate constant of dissociation.

Data set [1] has as its target T1, recombinant receptor human IL-10Ra protein (Homo sapiens, UniProt Q13651).
T1 sequence (Q13651 22-578): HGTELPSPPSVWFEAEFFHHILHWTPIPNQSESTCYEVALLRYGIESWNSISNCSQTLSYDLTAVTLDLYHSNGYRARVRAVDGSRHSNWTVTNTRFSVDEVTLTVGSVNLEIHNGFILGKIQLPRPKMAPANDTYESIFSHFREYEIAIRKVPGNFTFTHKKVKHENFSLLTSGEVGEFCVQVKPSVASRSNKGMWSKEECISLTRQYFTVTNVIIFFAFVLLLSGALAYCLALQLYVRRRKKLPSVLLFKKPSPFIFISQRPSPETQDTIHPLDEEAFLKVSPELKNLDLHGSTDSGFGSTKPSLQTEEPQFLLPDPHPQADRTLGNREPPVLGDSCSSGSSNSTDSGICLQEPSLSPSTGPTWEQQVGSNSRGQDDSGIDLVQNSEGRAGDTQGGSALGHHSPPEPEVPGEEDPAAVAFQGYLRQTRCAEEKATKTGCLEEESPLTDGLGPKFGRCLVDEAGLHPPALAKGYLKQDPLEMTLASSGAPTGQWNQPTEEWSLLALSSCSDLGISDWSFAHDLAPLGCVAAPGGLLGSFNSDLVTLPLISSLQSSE
In words: Biolayer interferometry kinetic assay, binding to IL-10Ra. As to conditions: for kon: read-out: ka (association constant). How it is done:
Biolayer interferometry (BLI) was applied to analyze peptide–receptor protein interactions. BLI was performed with a ForteBio Octet RED96e System (Sartorius AG, Göttingen, Germany) by using high-precision streptavidin and biosensors. The biosensors were hydrated in a plate for 15 min and then loaded with 10 μg/mL recombinant receptor human IL-10Ra protein and incubated for 150 s. […] After the association step, the biosensor was shifted to the dissociation buffer, phosphate-buffered saline (PBS) with 0.05% Tween20, for dissociation. Dissociation was recorded until equilibrium was reached (120 s).
To measure the binding ability of the designed and negative control peptides (NM25, NK20, NK20a, and control scramble peptide CG20) to the receptor IL-10Ra in vitro, BLI experiments were performed. […] When binding with IL-10Ra, the association constant (ka) of NK20 and NK20a was 1.02 × 10^4 (1/Ms) and 8.14 × 10^3 (1/Ms), respectively. The ka values of the refined peptides were approximately 12-fold higher than that of NM25. […] The equilibrium dissociation constant (KD) of NK20a interactions with IL-1R1was approximately 2000 times greater than that with IL-10Ra, and the calculated dissociation constant of NK20a interactions with IL-1R1 was to be 5000 times greater than that with IL-10Ra interactions (Table 2). […] As a result, NK20a was used for further investigations in this study.
Fig. 3 BLI kinetic assays of the designed peptides binding to the receptor IL-10Ra. Wavelength shift curves show the association and dissociation of the designed peptides (a) NM25, (b) NK20, (c) NK20a, (d) CG20 binding to the IL-10 receptor, and (e) NK20a binding to a control receptor IL-1R1 at various concentrations. Dissociation was recorded at 120 s after the binding started (black dotted line).
For orientation: BLI is a label-free optical method that tracks binding on a fibre tip over time.

Details of data set [2]: method as in 2 sources, ref 40 = [40]; PMID 22211087; doi:10.7150/ijms.9.33; 40. Kadoyama K Adverse event profiles of 5-fluorouracil and capecitabine: data mining of the public version of the FDA adverse event reporting system, AERS, and reproducibility of clinical observation ||| ref 49 = [49]; 49. Casale, J. & Patel, P. Fluorouracil [Updated 2022 Nov 24]. In StatPearls. (StatPearls Publishing, Treasure Island (FL), 2023). The following applies: cited from earlier work. The source says:
5-FU is a cytotoxic chemotherapeutic drug used in the treatment of a variety of cancers, including breast cancer. […] The gold nanoparticles fabricated in this study may be used as a delivery material to deliver 5-FU into cancer cells. Here, we loaded 5-FU onto NK20a/Poly A15@Au and Poly A15@Au nanoparticles. […] It works by inhibiting the normal synthesis of thymidine by incorporating 5-FU metabolites into DNA and RNA, eventually leading to the arrest of synthetic pathways and subsequent apoptosis of treated cells[47],[48]. 5-FU is typically administered via intravenous injection. Infusions of 5-FU can be rapidly […] through the circulatory system, and prolonged administration of 5-FU is required to maintain a high level of 5-FU in the body, thereby enhancing clinical efficacy. However, its nonspecific toxicity, ...

In data set [3] the test system is BT-474 breast cancer cells. In words: Therapeutic efficacy: cell viability (CCK-8), BT-474 breast cancer cells. Format: cell-based, human. The source says:
5-FU is a cytotoxic chemotherapeutic drug used in the treatment of a variety of cancers, including breast cancer. […] The gold nanoparticles fabricated in this study may be used as a delivery material to deliver 5-FU into cancer cells. Here, we loaded 5-FU onto NK20a/Poly A15@Au and Poly A15@Au nanoparticles.

In another data set the test system is BJAB B-lymphoma cells. In words: Cell viability assay (CCK-8), B-lymphoma cells. Format: cell-based. As to conditions: 50 μg/mL NK20a and/or 10 ng/mL IL-10, 48 h, triplicate. How it is done:
BJAB B-lymphoma cell lines were cultured in RPMI 1640 medium supplemented with 10% fetal bovine serum. RAW 264.7 macrophage and BT-474 human breast tumor cell lines were cultured in Dulbecco’s Modified Eagle Medium (DMEM) supplemented with 10% fetal bovine serum, 1% L-glutamine, 100 U/ml penicillin, 100 U/ml streptomycin, and sodium pyruvate. The cells were incubated at 37 °C in a 5% CO2 atmosphere.
For the cell viability assay, B-lymphoma cells were cultured in 96-well plates at a density of 3 × 10^3 cells/well for 24 h. The cells were then treated with 10 ng/mL IL-10 and 50 μg/mL NK20a, and further incubated for 48 h. After incubation, 10 μL of Cell Counting Kit-8 (CCK-8; Enzo Life Sciences, NY, USA) reagent was added, and the cells were incubated at 37 °C for 1 h. Cell viability was quantified by measuring the absorbance at 450 nm by using an ELISA plate reader (CLARIOstar Plus, BMG Labtech, Ortenberg, Germany).
Fig. 4 In vitro binding assay and cytotoxicity study. a B-lymphoma cells were treated with NK20a, and the fluorescence of the treated cells was analyzed through flow cytometry to determine the binding ability of NK20a to the cell surface. The fluorescence distribution of FITC was categorized as treated with NK20a (green) and untreated (red). b Bar chart showing the cell viability of the B-lymphoma cell line treated with 10 ng/mL IL-10, 50 μg/mL NK20a, and both, respectively. […]

The test system of the next data set is RAW 264.7 macrophages. As to the kind of experiment: Atomic force microscopy of macrophage morphology / activation. The following applies: RAW 264.7, AFM; LPS 10 ng/mL, IL-10 10 ng/mL, NK20a 50 μg/mL pretreatment 30 min with LPS; fixed after 24 h. Format: cell-based. How it is done:
Cell morphology was evaluated through atomic force microscopy (AFM) to observe the effects of the peptide on the cells. For AFM experiments, RAW 264.7 macrophages (5 × 10^4 cells/mL) were seeded on coverslips that had been treated with HCl to facilitate cell attachment. The cells were treated with lipopolysaccharides (LPS), NK20a, or IL-10 and incubated at 37 °C. After 24 h of incubation, the medium was removed, and the cells were washed twice with PBS. The cells were then fixed with 4% glutaraldehyde for 40 min. Finally, the fixation solution was removed, the samples were gently washed three times with Milli Q water, and then the samples were dried in a desiccator for 3 h. Cell morphology was imaged using an AFM instrument (Nanowizard, JPK BioAFM, Bruker Nano GmbH, Berlin, Germany). […] The AFM probes used were oxide-sharpened silicon nitride (Si3N4) probes (OMCL-TR400PB-1, Olympus, Tokyo, Japan) with a spring constant of 0.02 N/m. The SPM image processing software package version 3.1.6 (JPK BioAFM, Bruker Nano GmbH, Berlin, Germany) was used for processing and analysis of AFM image data.
Macrophages play a key role in tumor cell clearance. […] In this study, we examined the ability of NK20a to inhibit the anti-inflammatory effects of IL-10 on macrophages. The RAW 264.7 macrophage cell line was used in the evaluation, and the activation of macrophage cells was visualized through AFM. […]

For data set [4], the target named is T2, recombinant receptor human IL-10Ra protein (human, UniProt Q13651 22-235).
T2 construct: Interleukin-10 receptor subunit alpha, human, recombinant; also called IL-10 receptor
T2 sequence (looked up): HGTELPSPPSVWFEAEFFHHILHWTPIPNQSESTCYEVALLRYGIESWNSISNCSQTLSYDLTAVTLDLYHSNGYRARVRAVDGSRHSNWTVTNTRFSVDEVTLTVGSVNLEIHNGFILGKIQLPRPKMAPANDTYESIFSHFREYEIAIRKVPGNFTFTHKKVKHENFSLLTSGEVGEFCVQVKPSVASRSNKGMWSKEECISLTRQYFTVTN
In words: BLI; ForteBio Octet RED96e, streptavidin biosensors loaded with 10 μg/mL recombinant human IL-10Ra (150 s); peptides at 3.12-100.0 μM, association 120 s; dissociation 120 s in PBS with 0.05% Tween20. As to conditions: both partners purified.

Data set [5] concerns the target T3, recombinant receptor human IL-10Ra protein (human, UniProt Q13651 22-235).
T3 chain: T2 sequence (looked up)
In words: BLI; steady-state analysis.

In a further data set the target is receptor IL-1R1 (UniProt P14778 18-569, Source and limits not given; taken as the recombinant extracellular domain (UniProt topological domain 18-336) by convention. Human inferred from the human IL-10Ra used in the same BLI assay. Likely). In words: BLI; control receptor IL-1R1 in place of IL-10Ra; NK20a at various concentrations. As to conditions: both partners purified.
Chain of receptor IL-1R1 (P14778 18-569): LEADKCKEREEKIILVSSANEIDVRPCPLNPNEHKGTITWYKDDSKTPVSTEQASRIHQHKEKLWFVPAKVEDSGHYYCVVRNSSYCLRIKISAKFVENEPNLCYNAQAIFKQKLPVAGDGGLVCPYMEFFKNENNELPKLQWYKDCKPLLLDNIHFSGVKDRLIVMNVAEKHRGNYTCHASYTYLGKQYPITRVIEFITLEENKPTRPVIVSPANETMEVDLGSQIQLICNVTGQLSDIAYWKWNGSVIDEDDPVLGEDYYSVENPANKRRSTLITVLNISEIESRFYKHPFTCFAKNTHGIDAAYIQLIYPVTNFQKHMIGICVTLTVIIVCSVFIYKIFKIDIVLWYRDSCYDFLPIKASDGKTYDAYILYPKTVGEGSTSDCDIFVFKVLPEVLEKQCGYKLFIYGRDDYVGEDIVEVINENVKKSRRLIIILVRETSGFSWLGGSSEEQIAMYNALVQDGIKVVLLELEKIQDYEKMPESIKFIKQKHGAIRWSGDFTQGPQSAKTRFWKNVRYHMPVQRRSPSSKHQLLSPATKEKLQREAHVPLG

Where [6] appears, read: BLI kinetic, human IL-10Ra, peptides 3.12-100.0 μM, association 120 s.

“Also recorded” adds a separate entry of the source. Ends that are not written are not given here.

On to NMLRDLRDAFSRVKTFFQMK [NK20], for which the kon in data set [1] (setting [6]) is 10200 M⁻¹ s⁻¹.
For the molecule NMLRDLRDAFSRVKTFFQMKDQLDN [NM25], in data set [1] (setting [6]), the kon worked out at 832 M⁻¹ s⁻¹.
For “CPLNGSTVYGHLRHCLSCSG [CG20, random, control scramble peptide, reference compound]”, the “binding to IL-10Ra (in words)” value in data set [1] (BLI) was “not able to bind to IL-10Ra”.
On to `O=c1[nH]cc(F)c(=O)[nH]1` [5-FU, 5-fluorouracil], for which, in data set [2], the “membrane permeability (in words)” value was “poor membrane permeability”; the “membrane permeability / half-life in plasma (in words)” value was “poor membrane permeability, and short half-life in plasma”. In data set [3] (BT-474, free 5-FU at 80 μM, 72 h, CCK-8), the survival rate entry was “more than 70%”. Further, in data set [3] (CCK-8, 72 h, 5-FU free up to 80 μM), the “cell survival / therapeutic effect on BT-474 (in words)” value is “did not exhibit a significant therapeutic effect against the breast cancer cells”.
With “IL-10: immune regulatory cytokine with strong anti-inflammatory activity”, the “kd (dissociation constant)” value in data set [1] (BLI kinetic, human IL-10Ra, dissociation 120 s in PBS with 0.05% Tween20) was less than 1e-07 s⁻¹. In data set [1] (setting [6]), the “ka (association constant)” value was determined as 224000 M⁻¹ s⁻¹. Moreover, the “cell proliferation / viability (in words)” value in the data set with BJAB B-lymphoma cells is “did not significantly promote the proliferation of lymphoma B cells”. The “macrophage activation, morphology (in words)” value in the data set on RAW 264.7 macrophages is “the activation of macrophages was suppressed; also recorded: inhibited the inflammation of LPS-stimulated cells”.

B1: NM25 peptide (peptide)
peptide: NMLRDLRDAFSRVKTFFQMKDQLDN
notes: human IL-10; also called original peptide; source: synthetic peptide (GeneMark, GMbiolab Co., solid-phase)
Take B1: in data set [4], the Kd was 41 µM and the koff was 0.0341 s⁻¹. For the same molecule, the Kd in data set [5] is 0.55 µM.

B2: NK20 peptide (peptide)
peptide: NMLRDLRDAFSRVKTFFQMK
notes: truncation of NM25 (five C-terminal residues removed); stretch of human IL-10; source: synthetic peptide (GeneMark, GMbiolab Co., solid-phase)
As for B2, the values for the Kd in data set [4] and in data set [5] were 21.4 µM and 0.26 µM, respectively. Also, the koff in data set [4] was determined as 0.218 s⁻¹.

B3: NK20a peptide (peptide)
peptide: NMLRNLRNAFSRVKTFFQMK
notes: NK20 with two Asp replaced by Asn; stretch of human IL-10; source: synthetic peptide (GeneMark, GMbiolab Co., solid-phase)
B3: the Kd turned out to be 11.2 µM in data set [4], 0.15 µM in data set [5] and 28000 µM with receptor IL-1R1. Moreover, the values for the koff (in data set [4]; in the data set with receptor IL-1R1) were 0.0909 s⁻¹ and 512 s⁻¹, respectively.

B4: Human interleukin-10 (IL-10) (ligand, UniProt P22301 19-178, looked up)
chain: SPGQGTQSENSCTHFPGNLPNMLRDLRDAFSRVKTFFQMKDQLDNLLLKESLLEDFKGYLGCQALSEMIQFYLEEVMPQAENQDPDIKAHVNSLGENLKTLRLRLRRCHRFLPCENKSKAVEQVKNAFNKLQEKGIYKAMSEFDIFINYIEAYMTMKIRN
notes: Interleukin-10, human; the methods of the BLI describe only the peptides as analytes; also called IL-10 cytokine
With B4, in data set [4], the Kd was less than 1e-06 µM, the koff was less than 1e-07 s⁻¹ and the kon turned out to be 224000 M⁻¹ s⁻¹. The Kd in data set [5] was determined as 1 µM.
